Target: the molecule itself
Assay: crystal structure; SaGpsB 1-75 at 5 mg/mL, no ligand; reservoir 1.0 M succinic acid, 0.1 M HEPES pH 7.5, 1 %w/v PEG 2000 MME; one dimer in the asymmetric unit; molecular replacement

B1: N-terminal domain (residues 1–75) of Staphylococcus aureus GpsB (domain or fragment, Staphylococcus aureus strain NCTC 8325, UniProt Q2FYI5 1-75, looked up)
chain: MSDVSLKLSAKDIYEKDFEKTMARGYRREEVDAFLDDIIADYQKMADMNNEVVKLSEENHKLKKELEELRLRVAT
notes: GpsB, Staphylococcus aureus strain NCTC 8325, Uniprot Q2FYI5, SAOUHSC_01462, residues 1-75 (N-terminal dimerization domain); Asymmetric homodimer in the crystal; also called SaGpsB; GpsB 1–75; source: E. coli BL21 (DE3), purified (Ni-NTA, SUMO protease cleavage, anion exchange, Superdex75 SEC); not shown: 10xHis, N-terminal, cleaved; SUMO, N-terminal, cleaved
stoichiometry N: 2

— publication PMC12880628, “X-Ray Crystal Structure of the N-Terminal Domain of Staphylococcus Aureus Cell-Cycle Protein GpsB” (Crystals, 2025)
